In publication PMC5992219, “HuR regulates telomerase activity through TERC methylation”:

Legend:
[1] = tested on: HuR (HeLa lysate) (human (HeLa)); assay: pull-down; conditions: biotin-UTP, ITC: 10 mM Tris pH 8.0, 100 mM NaCl, 25 C, UV-crosslinking EMSA: 50 mM Tris pH 7.0, 150 mM NaCl, 0.25 mg/ml tRNA, 0.025 mg/ml BSA, pull-down: 1 ug RNA …
[2] = target: HuR (ITC, SUMO tag removed) (UniProt Q15717 1-326); assay: ITC; ITC: 10 mM Tris pH 8.0, 100 mM NaCl, 25 C; UV-crosslinking EMSA: 50 mM Tris pH 7.0, 150 mM NaCl, 0.25 mg/ml tRNA, 0.025 mg/ml BSA, 25 C; pull-down: 1 ug RNA, 100 ug cytoplasmic extract, room temperature, 30 min; conditions: protein: recombinant; tags: N-terminal 6xHis-SUMO removed by Ulp1
Sequence of HuR (ITC, SUMO tag removed) (Q15717 whole entry): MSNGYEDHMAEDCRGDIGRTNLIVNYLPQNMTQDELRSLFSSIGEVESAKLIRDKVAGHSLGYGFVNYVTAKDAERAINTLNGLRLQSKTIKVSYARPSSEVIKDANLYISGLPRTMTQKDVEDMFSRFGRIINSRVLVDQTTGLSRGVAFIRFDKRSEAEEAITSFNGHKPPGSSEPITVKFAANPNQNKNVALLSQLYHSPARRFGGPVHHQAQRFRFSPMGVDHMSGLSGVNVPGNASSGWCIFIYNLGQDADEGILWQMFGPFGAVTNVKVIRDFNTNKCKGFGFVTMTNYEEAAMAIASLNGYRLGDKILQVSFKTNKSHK

TERC U100A
binding signal (% reduction vs WT) [1]: 70.4

TERC U40A
binding signal (% reduction vs WT) [1]: 70.7

CUAGACUAGGACUC (ssRNA) [ITC negative control RNA]
binding result [2]: no binding

GUUUUUCUCG (ssRNA) [TERC 98-107 oligo (GUUUUUC motif)]
Kd [2]: ~70.4 nM

AUUUUUUGUCU (ssRNA) [TERC 37-47 oligo (UUUUUU motif)]
Kd [2]: ~24.3 nM
